Data: patent US20050074754A1 (published 2005)

Target: T1, human NKG2D (human, UniProt P26718 1-216)
T1 construct: whole, on cells; also called hNKG2D; expressed on CHO-K1/hNKG2D-11 cells
T1 sequence (looked up): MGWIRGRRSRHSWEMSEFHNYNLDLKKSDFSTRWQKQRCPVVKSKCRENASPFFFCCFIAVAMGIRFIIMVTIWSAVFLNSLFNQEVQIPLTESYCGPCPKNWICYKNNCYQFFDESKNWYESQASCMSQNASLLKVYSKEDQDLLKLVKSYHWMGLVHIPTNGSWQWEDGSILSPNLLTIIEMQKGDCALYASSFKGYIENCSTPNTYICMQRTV
Assay: flow cytometry on CHO-K1/hNKG2D-11 cells, detected with anti-human IgG (Fc)-FITC
Procedure: The human NKG2D-expressing CHO-K1 cell strain CHO-K1/hNKG2D-11 obtained in Example 7 was washed twice with PBS/1% FBS and suspended in 50 μl PBS/1% FBS containing 10 μl concentrate of the culture supernatant of the CSP2-Fc-expressing COS7 cells obtained in Example 6. The suspension was reacted at 0° C. for 60 minutes for binding them, then washed twice with 200 μl PBS/1% FBS, and suspended in 50 μl PBS/1% FBS containing 1 μl anti-human IgG (Fc)-FITC conjugate (Caltag). The suspension was reacted at 0° C. for 60 minutes for labeling, then washed twice with 200 μl PBS/1% FBS, and suspended again in 600 μl PBS/1% FBS. When the suspension was analyzed with a flow cytometer FACS Vantage (Becton Dickinson), cells with high intensity of FITC fluorescence were recognized, and the evident binding of CSP2-Fc protein to human NKG2D expressed on the surface of CHO-K1 cells was observed (FIG. 2A).

B1: CSP2-Fc protein (fusion protein of CSP2 protein with human IgG Fc region) (Fc fusion)
chain: HSLCFNFTIKSLSRPGQPWCEAQVFLNKNLFLQYNSDNNMVKPLGLLGKKVNATSTWGELTQTLGEVGRDLRMLLCDIKPQIKTSDPSTLQVEMFCQREAERCTGASWQFAINGEKSLLFDAMNMTWTVINHEASKIKETWKKDRGLEKYFRKLSKGDCDHWLREFLGHWEAMPEPTVSPVNASDIHWSSS
notes: Used as a 100-fold concentrate of the culture supernatant of transfected COS7 cells, not purified; The construct encodes CSP2 residues 1-221; not shown: human IgG Fc region, amplified by PCR from human spleen IgG Fc cDNA (Clontech); Subclass, limits and the residues encode
- binding result: binds
